We go through one molecule from patent publication US20250011869A1, “TLR3 INHIBITORS FOR USE IN THE TREATMENT OF DISEASES ASSOCIATED WITH CARDIOVASCULAR CALCIFICATION” (priority 2021, published 2025).

One experiment relates to TLR3 and IFN-β. Put plainly: RT-PCR of human dermal fibroblasts (wild type, empty vector control, Tlr3−/− CRISPR). Type of experiment: cell-based. Particulars: 5 μg/ml, 6 h. An excerpt: Human dermal fibroblasts WT and Tlr3^−/− were kindly provided by the Jean-Laurent Casanova group and cultivated in DMEM with 4.5 g/L glucose (Lonza, Basel, Switzerland), 10% FCS (Sigma, St. Louis, MO), penicillin, streptomycin and L-Glutamine. Human dermal fibroblasts CTR cells were provided by the Villunger group and cultivated in DMEM with 4.5 g/L glucose (Lonza, Basel, Switzerland), 10% FCS (Sigma, St. Louis, MO), penicillin, streptomycin and L-Glutamine.
(§1) All cells were cultivated under standard conditions (37° C., supplied with 5% CO2). Passaging of the cells was performed at 70-90% confluency, and cells were only used until passage 7 as described previously^6. Polyinosinic: polycytidylic acid (Poly(I:C); Invivogen, San Diego, CA) was used to stimulate cells at a concentration of either 20 μg/mL or 5 μg/ml, depending on the assay. For blockade of TLR3, the commercially available dsRNA/TLR3 inhibitor ((R)-2-(3-Chloro-6-fluorobenzo [b] thiophene-2-carboxamido)-3-phenyl-propanoic acid) was used (Merck, Darmstadt, Germany) at a concentration of 1 μg/ml as described previously^1,7. LY294002 (Invivogen, San Diego, CA), a PI3K inhibitor, was used at a concentration of 10 μM. For blockade of IFNAR1, a specific blocking antibody (Invitrogen, Carlsbad, CA) was used at a concentration of 4 μg/ml. A stable HEK (human embryonic kidney) reporter cell line (TLR3/ISRE LUCPorter; Imgenex, USA) was purchased for luminometer assay experiments. Cells were cultivated according to the manufacturer's protocol in DMEM with 4.5 g/L glucose (Lonza, Switzerland), 10% FCS (Sigma, St. Louis, MO), penicillin/streptomycin, and 4 mM L-glutamine and […] puromycin (Gibco, USA) as selection agent. Reporter experiments were performed as described previously^8. For the protein expression SF21 cells were purchased at ThermoFisher (#11497013) and cultivated in Gibco™ Sf-900™ SFM supplemented with penicillin, streptomycin and L-Glutamine. In vitro stretch was applied using a Flexcell bioreactor (Flexcell International Corporation, Burlington, NC) applying 15% cyclic strain as described previously^9.
RT-PCR was performed as described previously^17. Total RNA was extracted from homogenized tissue or cell lysates using the Total RNA Miniprep Kit (New England BioLabs, Frankfurt, Germany) according to the manufacturer's instructions. We performed the PCR reaction in a final volume of 12.5 μL containing 2.5 μL of cDNA, 6.25 μL of Master Mix, 1 μL of fluorogenic hybridization probe, 10 μM of primer and 2.75 μL of distilled water. […] The result for the relative gene expression was calculated by the 2-DDCt method. Mean Ct values were calculated from double determinations and samples were considered negative if the Ct values exceeded 4017. […]

The test system of experiment [1] is TLR3. Put plainly: TLR3 expression in valvular interstitial cells (immunoblot / RT-qPCR). Type of experiment: cell-based, human. Particulars: immunoblot; 20 μg/ml, 24 h or 48 h (FIG. 7A). Here is the method:
Valvular interstitial cells from patients undergoing aortic valve replacement or cardiac transplantation were isolated via collagen digestion as described previously^6. Valves were rinsed in EBSS and subsequently subjected to collagenase digestion (Sigma, St. Louis, MO; 2.5 mg/mL in M199) for 30 minutes at 37° C. Thereafter, tissue samples were vortexed and supernatant containing endothelial cells was removed. Again, collagenase was added to the remaining valve tissue (1 mg/mL) for 3 h at 37° C. For mechanical disintegration of the tissue, vortexing and repeated aspiration via a pipette was performed. The supernatant was transferred into a new tube and subjected to centrifugation (300 g for 8 minutes at 4° C.). Subsequently, cells were resuspended in M199 medium containing 10% fetal calve serum, penicillin, streptomycin, L-Glutamine and amphotericin B (2.5 mg/L).
All cells were cultivated under standard conditions (37° C., supplied with 5% CO2). Passaging of the cells was performed at 70-90% confluency, and cells were only used until passage 7 as described previously^6. […]
RT-PCR was performed as described previously^17. […] The result for the relative gene expression was calculated by the 2-DDCt method. Mean Ct values were calculated from double determinations and samples were considered negative if the Ct values exceeded 4017. […]

Experiment [2] concerns the target T1, human TLR3 ectodomain (huTLR3-ECD) (Homo sapiens, UniProt O15455).
T1 construct: The human TLR3-ECD (27-700) was modified with an N-terminal gb67 leader and a C-terminal 6× poly histidine tag; gb67 (gp67) secretion leader (N); 6xHis (C); made in house; host or cells: Sf21 insect cells (baculovirus, pFastBac1, Bac-to-Bac)
Put plainly: In vitro binding by size exclusion chromatography and immunoblot. Particulars: chondroitinase ABC digested BGN incubated with TLR3 ECD.

Experiment [3] addresses TLR3 (Homo sapiens, UniProt O15455). Put plainly: HEK293 hTLR3 reporter cell assay (TLR3/ISRE LUCPorter, luminometer). Type of experiment: cell-based. The note with it: putative ligands at increasing concentrations, 24 h (biglycan 5, 10, 20 μg/ml). Here is the method:
as §1, with “For the protein expression SF21 cells were purchased at ThermoFisher (#11497013) and cultivated in Gibco™ Sf-900™ SFM supplemented with penicillin, streptomycin and L-Glutamine. In vitro stretch was applied using a Flexcell bioreactor (Flexcell International Corporation, Burlington, NC) applying 15% cyclic strain as described previously^9.” left out

“Also recorded” adds a separate entry of the source.

B1: BGN: proteoglycan biglycan (BGN), a structural protein of the extracellular matrix (ECM) (protein)
chain: DEEASGAETTSGIPDLDSLPPTYSAMCPFGCHCHLRVVQCSDLGLKAVPKEISPDTTLLDLQNNDISELRKDDFKGLQHLYALVLVNNKISKIHEKAFSPLRKLQKLYISKNHLVEIPPNLPSSLVELRIHDNRIRKVPKGVFSGLRNMNCIEMGGNPLENSGFEPGAFDGLKLNYLRISEAKLTGIPKDLPETLNELHLDHNKIQAIELEDLLRYSKLYRLGLGHNQIRMIENGSLSFLPTLRELHLDNNKLSRVPAGLPDLKLLQVVYLHTNNITKVGVNDFCPVGFGVKRAYYNGISLFNNPVPYWEVQPATFRCVTDRLAIQFGNYKK
As to B1, the “transcription of TLR3 and IFN-β” value was “no response” in the experiment on TLR3 and IFN-β (Tlr3−/− fibroblasts); “induced transcription of TLR3 and IFN-β” with TLR3 and IFN-β (wild type and empty vector control fibroblasts). In addition, in the experiment with TLR3 [1], the “TLR3 expression in VICs” value is listed as “induces TLR3 expression in a dose-dependent manner; also recorded: induced TLR3 expression in VICs”. Besides, the “binding to huTLR3-ECD by size-exclusion chromatography followed by immunoblotting” value is reported as “co-elution” in experiment [2] and “weak binding interaction” in experiment [2] (listed as huBGN). Moreover, the “activation of TLR3 reporter cells” value with TLR3 [3] is “activated TLR3 reporter cells in a dose-dependent fashion”.
